Reference: patent US20260274985A1 (MYTHIC THERAPEUTICS, published 2026)

T1: Human TROP2 Protein, His Tag (Acro Biosystems) (human, UniProt P09758 27-274)
T1 construct: Bought protein; also called TACSTD2; not shown: His tag
T1 sequence: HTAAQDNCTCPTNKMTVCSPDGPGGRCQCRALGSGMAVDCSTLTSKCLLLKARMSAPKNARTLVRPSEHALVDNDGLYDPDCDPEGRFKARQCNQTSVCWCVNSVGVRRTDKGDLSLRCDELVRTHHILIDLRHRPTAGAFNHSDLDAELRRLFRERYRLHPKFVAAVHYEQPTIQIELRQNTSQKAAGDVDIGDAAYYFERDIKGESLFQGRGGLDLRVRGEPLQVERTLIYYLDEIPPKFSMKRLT


Target: T1, Human TROP2 Protein, His Tag (Acro …)
Test: BLI (Octet)

Row | Binder | binding result
1 | MYT12435 (hu7E6SVG variant, HCV substitutions at 51, 56, 103) (antibody, V domains shown) VH: QVQLQESGPGLVKPSETLSLTCTVSGGSISSYGVHWIRQPPGKGLEWIGVHWTSGHTDYNSALMGRVTISVDTSKNQFSLKLSSVTAADTAVYYCARDGDYDHYTMDYWGQGTLVTVSS VL: DIVMTQSPDSLAVSLGERATINCRASKSVSTSGYSYMHWYQQKPGQPPKLLIYLASNLESGVPDRFSGSGSGTDFTLTISSLQAEDVAVYYCQHSRELPYTFGQGTKLEIK | binds
2 | MYT12437 (hu7E6SVG variant, HCV substitutions at 51, 103, 106) (antibody, V domains shown) VH: QVQLQESGPGLVKPSETLSLTCTVSGGSISSYGVHWIRQPPGKGLEWIGVHWTSGVTDYNSALMGRVTISVDTSKNQFSLKLSSVTAADTAVYYCARDGDYDHYTHDYWGQGTLVTVSS VL: DIVMTQSPDSLAVSLGERATINCRASKSVSTSGYSYMHWYQQKPGQPPKLLIYLASNLESGVPDRFSGSGSGTDFTLTISSLQAEDVAVYYCQHSRELPYTFGQGTKLEIK | binds
3 | MYT12442 (hu7E6SVG variant, LCV substitutions at 59, 97) (antibody, V domains shown, Full IgG in Expi293 supernatant) VH: QVQLQESGPGLVKPSETLSLTCTVSGGSISSYGVHWIRQPPGKGLEWIGVIWTSGVTDYNSALMGRVTISVDTSKNQFSLKLSSVTAADTAVYYCARDGDYDRYTMDYWGQGTLVTVSS VL: DIVMTQSPDSLAVSLGERATINCRASKSVSTSGYSYMHWYQQKPGQPPKLLIYLASNLHSGVPDRFSGSGSGTDFTLTISSLQAEDVAVYYCQHSRHLPYTFGQGTKLEIK | binds
4 | MYT12443 (hu7E6SVG variant, LCV substitutions at 59, 101) (antibody, V domains shown, Full IgG in Expi293 supernatant) VH: QVQLQESGPGLVKPSETLSLTCTVSGGSISSYGVHWIRQPPGKGLEWIGVIWTSGVTDYNSALMGRVTISVDTSKNQFSLKLSSVTAADTAVYYCARDGDYDRYTMDYWGQGTLVTVSS VL: DIVMTQSPDSLAVSLGERATINCRASKSVSTSGYSYMHWYQQKPGQPPKLLIYLASNLHSGVPDRFSGSGSGTDFTLTISSLQAEDVAVYYCQHSRELPYHFGQGTKLEIK | binds
5 | MYT12444 (hu7E6SVG variant, LCV substitutions at 60, 93) (antibody, V domains shown, Full IgG in Expi293 supernatant) VH: QVQLQESGPGLVKPSETLSLTCTVSGGSISSYGVHWIRQPPGKGLEWIGVIWTSGVTDYNSALMGRVTISVDTSKNQFSLKLSSVTAADTAVYYCARDGDYDRYTMDYWGQGTLVTVSS VL: DIVMTQSPDSLAVSLGERATINCRASKSVSTSGYSYMHWYQQKPGQPPKLLIYLASNLEHGVPDRFSGSGSGTDFTLTISSLQAEDVAVYYCHHSRELPYTFGQGTKLEIK | binds
6 | MYT12436 (hu7E6SVG variant, HCV substitutions at 51, 56, 106) (antibody, V domains shown) VH: QVQLQESGPGLVKPSETLSLTCTVSGGSISSYGVHWIRQPPGKGLEWIGVHWTSGHTDYNSALMGRVTISVDTSKNQFSLKLSSVTAADTAVYYCARDGDYDRYTHDYWGQGTLVTVSS VL: DIVMTQSPDSLAVSLGERATINCRASKSVSTSGYSYMHWYQQKPGQPPKLLIYLASNLESGVPDRFSGSGSGTDFTLTISSLQAEDVAVYYCQHSRELPYTFGQGTKLEIK | binds
7 | MYT12438 (hu7E6SVG variant, HCV substitutions at 56, 103, 106) (antibody, V domains shown) VH: QVQLQESGPGLVKPSETLSLTCTVSGGSISSYGVHWIRQPPGKGLEWIGVIWTSGHTDYNSALMGRVTISVDTSKNQFSLKLSSVTAADTAVYYCARDGDYDHYTHDYWGQGTLVTVSS VL: DIVMTQSPDSLAVSLGERATINCRASKSVSTSGYSYMHWYQQKPGQPPKLLIYLASNLESGVPDRFSGSGSGTDFTLTISSLQAEDVAVYYCQHSRELPYTFGQGTKLEIK | binds
8 | MYT12441 (hu7E6SVG variant, LCV substitutions at 59, 94 (Ala at 94)) (antibody, V domains shown, Full IgG in Expi293 supernatant) VH: QVQLQESGPGLVKPSETLSLTCTVSGGSISSYGVHWIRQPPGKGLEWIGVIWTSGVTDYNSALMGRVTISVDTSKNQFSLKLSSVTAADTAVYYCARDGDYDRYTMDYWGQGTLVTVSS VL: DIVMTQSPDSLAVSLGERATINCRASKSVSTSGYSYMHWYQQKPGQPPKLLIYLASNLHSGVPDRFSGSGSGTDFTLTISSLQAEDVAVYYCQASRELPYTFGQGTKLEIK | binds
